Tests used:
[1] = target: the molecule itself; assay: AUC; sedimentation velocity, c(s) distribution; low concentration (9 µM contactin 1^Ig1–6, 5 µM contactin 1^fe), 12 mm centerpieces; 25 mM HEPES pH 7.5, 150 mM NaCl, 20 °C; abundances relative to normalized monomer abundance
[2] = target: the molecule itself; assay: AUC; sedimentation velocity, c(s) distribution; higher concentration (36 µM contactin 1^Ig1–6, 22 µM contactin 1^fe), 3 mm centerpieces; 25 mM HEPES pH 7.5, 150 mM NaCl, 20 °C; abundances relative to normalized monomer abundance
[3] = target: the molecule itself; assay: native MS; 2.5 µM protein in 150 mM ammonium acetate pH 7.5; static nano-electrospray, LCT time-of-flight
[4] = K562 cell clustering, co-clustering ratio; details: glycan changed form; control: untreated contactin 1 and neurofascin 155 K562 cells

B1: contactin 1^Ig1–6 (residues 21–604), high mannose glycans (domain or fragment, mouse, UniProt P12960 21-604, looked up)
chain: DFTWHRRYGHGVSEEDKGFGPIFEEQPINTIYPEESLEGKVSLNCRARASPFPVYKWRMNNGDVDLTNDRYSMVGGNLVINNPDKQKDAGVYYCLASNNYGMVRSTEATLSFGYLDPFPPEERPEVKVKEGKGMVLLCDPPYHFPDDLSYRWLLNEFPVFITMDKRRFVSQTNGNLYIANVESSDRGNYSCFVSSPSITKSVFSKFIPLIPIPERTTKPYPADIVVQFKDIYTMMGQNVTLECFALGNPVPDIRWRKVLEPMPSTAEISTSGAVLKIFNIQLEDEGLYECEAENIRGKDKHQARIYVQAFPEWVEHINDTEVDIGSDLYWPCIATGKPIPTIRWLKNGYSYHKGELRLYDVTFENAGMYQCIAENAYGSIYANAELKILALAPTFEMNPMKKKILAAKGGRVIIECKPKAAPKPKFSWSKGTEWLVNSSRILIWEDGSLEINNITRNDGGIYTCFAENNRGKANSTGTLVITNPTRIILAPINADITVGENATMQCAASFDPALDLTFVWSFNGYVIDFNKEITHIHYQRNFMLDANGELLIRNAQLKHAGRYTCTAQTIVDNSSASADLVVRG
modifications: N-linked high mannose glycans (glycans at Asn208, Asn258 and Asn521 are named)
notes: contactin 1, mouse, domains Ig1 to Ig6, residues 21–604; template Image Clone 30099512; Vector pUPE107.03 supplies a cystatin secretion signal peptide; also called CNTN1^Ig1–6; contactin 1^Ig1–6 HM; source: HEK293-ES (GnTI−, EBNA1-expressing HEK293), secreted, purified (Ni Sepharose excel, SEC)
[1]
  Dimer abundance (%): 2.4%
  Trace amounts higher order species: 0.6%
  Trimer abundance (%): 0.8%
[2]
  Dimer abundance (%): 0.1%

B2: contactin 1^fe (full ectodomain, residues 21–996), complex glycans (domain or fragment, mouse, UniProt P12960 21-996, looked up)
chain: DFTWHRRYGHGVSEEDKGFGPIFEEQPINTIYPEESLEGKVSLNCRARASPFPVYKWRMNNGDVDLTNDRYSMVGGNLVINNPDKQKDAGVYYCLASNNYGMVRSTEATLSFGYLDPFPPEERPEVKVKEGKGMVLLCDPPYHFPDDLSYRWLLNEFPVFITMDKRRFVSQTNGNLYIANVESSDRGNYSCFVSSPSITKSVFSKFIPLIPIPERTTKPYPADIVVQFKDIYTMMGQNVTLECFALGNPVPDIRWRKVLEPMPSTAEISTSGAVLKIFNIQLEDEGLYECEAENIRGKDKHQARIYVQAFPEWVEHINDTEVDIGSDLYWPCIATGKPIPTIRWLKNGYSYHKGELRLYDVTFENAGMYQCIAENAYGSIYANAELKILALAPTFEMNPMKKKILAAKGGRVIIECKPKAAPKPKFSWSKGTEWLVNSSRILIWEDGSLEINNITRNDGGIYTCFAENNRGKANSTGTLVITNPTRIILAPINADITVGENATMQCAASFDPALDLTFVWSFNGYVIDFNKEITHIHYQRNFMLDANGELLIRNAQLKHAGRYTCTAQTIVDNSSASADLVVRGPPGPPGGLRIEDIRATSVALTWSRGSDNHSPISKYTIQTKTILSDDWKDAKTDPPIIEGNMESAKAVDLIPWMEYEFRVVATNTLGTGEPSIPSNRIKTDGAAPNVAPSDVGGGGGTNRELTITWAPLSREYHYGNNFGYIVAFKPFDGEEWKKVTVTNPDTGRYVHKDETMTPSTAFQVKVKAFNNKGDGPYSLVAVINSAQDAPSEAPTEVGVKVLSSSEISVHWKHVLEKIVESYQIRYWAGHDKEAAAHRVQVTSQEYSARLENLLPDTQYFIEVGACNSAGCGPSSDVIETFTRKAPPSQPPRIISSVRSGSRYIITWDHVVALSNESTVTGYKILYRPDGQHDGKLFSTHKHSIEVPIPRDGEYVVEVRAHSDGGDGVVSQVKISG
modifications: N-linked complex glycans
notes: contactin 1, mouse, full ectodomain, residues 21–996; template Image Clone 30099512; Same chain as m7, other host and glycan type; also called contactin 1^fe CG; source: HEK293-E (EBNA1-expressing HEK293), secreted, purified (Ni Sepharose excel, SEC)
[3]
  stoichiometry N: 2
[1]
  Dimer abundance (%): 9.9%
  Trace amounts higher order species: 4.6%
  Trimer abundance (%): 3.4%
[2]
  Dimer abundance (%): 9.8%
  Trimer abundance (%): 4%

B3: contactin 1^fe Leu279Arg, high mannose glycans (domain or fragment, mouse, UniProt P12960 21-996, looked up)
chain: DFTWHRRYGHGVSEEDKGFGPIFEEQPINTIYPEESLEGKVSLNCRARASPFPVYKWRMNNGDVDLTNDRYSMVGGNLVINNPDKQKDAGVYYCLASNNYGMVRSTEATLSFGYLDPFPPEERPEVKVKEGKGMVLLCDPPYHFPDDLSYRWLLNEFPVFITMDKRRFVSQTNGNLYIANVESSDRGNYSCFVSSPSITKSVFSKFIPLIPIPERTTKPYPADIVVQFKDIYTMMGQNVTLECFALGNPVPDIRWRKVREPMPSTAEISTSGAVLKIFNIQLEDEGLYECEAENIRGKDKHQARIYVQAFPEWVEHINDTEVDIGSDLYWPCIATGKPIPTIRWLKNGYSYHKGELRLYDVTFENAGMYQCIAENAYGSIYANAELKILALAPTFEMNPMKKKILAAKGGRVIIECKPKAAPKPKFSWSKGTEWLVNSSRILIWEDGSLEINNITRNDGGIYTCFAENNRGKANSTGTLVITNPTRIILAPINADITVGENATMQCAASFDPALDLTFVWSFNGYVIDFNKEITHIHYQRNFMLDANGELLIRNAQLKHAGRYTCTAQTIVDNSSASADLVVRGPPGPPGGLRIEDIRATSVALTWSRGSDNHSPISKYTIQTKTILSDDWKDAKTDPPIIEGNMESAKAVDLIPWMEYEFRVVATNTLGTGEPSIPSNRIKTDGAAPNVAPSDVGGGGGTNRELTITWAPLSREYHYGNNFGYIVAFKPFDGEEWKKVTVTNPDTGRYVHKDETMTPSTAFQVKVKAFNNKGDGPYSLVAVINSAQDAPSEAPTEVGVKVLSSSEISVHWKHVLEKIVESYQIRYWAGHDKEAAAHRVQVTSQEYSARLENLLPDTQYFIEVGACNSAGCGPSSDVIETFTRKAPPSQPPRIISSVRSGSRYIITWDHVVALSNESTVTGYKILYRPDGQHDGKLFSTHKHSIEVPIPRDGEYVVEVRAHSDGGDGVVSQVKISG
modifications: N-linked high mannose glycans
notes: contactin 1, mouse, full ectodomain, residues 21–996, Leu279Arg; template Image Clone 30099512; also called Leu279Arg contactin 1^fe; Contactin 1^fe Leu279Arg HM
[3]
  stoichiometry N: ≤ 6
[1]
  Dimer abundance (%): 7.3%
  Trace amounts higher order species: 1.4%
  Trimer abundance (%): 8.7%
[2]
  Dimer abundance (%): 5.7%
  Trimer abundance (%): 6.7%

B4: contactin 1^fe (full ectodomain, residues 21–996), high mannose glycans (domain or fragment, mouse, UniProt P12960 21-996, looked up)
chain: DFTWHRRYGHGVSEEDKGFGPIFEEQPINTIYPEESLEGKVSLNCRARASPFPVYKWRMNNGDVDLTNDRYSMVGGNLVINNPDKQKDAGVYYCLASNNYGMVRSTEATLSFGYLDPFPPEERPEVKVKEGKGMVLLCDPPYHFPDDLSYRWLLNEFPVFITMDKRRFVSQTNGNLYIANVESSDRGNYSCFVSSPSITKSVFSKFIPLIPIPERTTKPYPADIVVQFKDIYTMMGQNVTLECFALGNPVPDIRWRKVLEPMPSTAEISTSGAVLKIFNIQLEDEGLYECEAENIRGKDKHQARIYVQAFPEWVEHINDTEVDIGSDLYWPCIATGKPIPTIRWLKNGYSYHKGELRLYDVTFENAGMYQCIAENAYGSIYANAELKILALAPTFEMNPMKKKILAAKGGRVIIECKPKAAPKPKFSWSKGTEWLVNSSRILIWEDGSLEINNITRNDGGIYTCFAENNRGKANSTGTLVITNPTRIILAPINADITVGENATMQCAASFDPALDLTFVWSFNGYVIDFNKEITHIHYQRNFMLDANGELLIRNAQLKHAGRYTCTAQTIVDNSSASADLVVRGPPGPPGGLRIEDIRATSVALTWSRGSDNHSPISKYTIQTKTILSDDWKDAKTDPPIIEGNMESAKAVDLIPWMEYEFRVVATNTLGTGEPSIPSNRIKTDGAAPNVAPSDVGGGGGTNRELTITWAPLSREYHYGNNFGYIVAFKPFDGEEWKKVTVTNPDTGRYVHKDETMTPSTAFQVKVKAFNNKGDGPYSLVAVINSAQDAPSEAPTEVGVKVLSSSEISVHWKHVLEKIVESYQIRYWAGHDKEAAAHRVQVTSQEYSARLENLLPDTQYFIEVGACNSAGCGPSSDVIETFTRKAPPSQPPRIISSVRSGSRYIITWDHVVALSNESTVTGYKILYRPDGQHDGKLFSTHKHSIEVPIPRDGEYVVEVRAHSDGGDGVVSQVKISG
modifications: N-linked high mannose glycans
notes: contactin 1, mouse, full ectodomain, residues 21–996; template Image Clone 30099512; Vector pUPE107.03 supplies a cystatin secretion signal peptide; also called contactin 1^fe HM; source: HEK293-ES (GnTI−, EBNA1-expressing HEK293), secreted, purified (Ni Sepharose excel, SEC)
[3]
  stoichiometry N: 2
[1]
  Dimer abundance (%): 11.7%
  Trimer abundance (%): 1.8%
[2]
  Dimer abundance (%): 2.9%
  Trimer abundance (%): 0.3%

B5: contactin 1: kifunensine on contactin 1 cells (protein)
parent chain: MKMPLLVSHLLLISLTSCLGDFTWHRRYGHGVSEEDKGFGPIFEEQPINTIYPEESLEGKVSLNCRARASPFPVYKWRMNNGDVDLTNDRYSMVGGNLVINNPDKQKDAGVYYCLASNNYGMVRSTEATLSFGYLDPFPPEERPEVKVKEGKGMVLLCDPPYHFPDDLSYRWLLNEFPVFITMDKRRFVSQTNGNLYIANVESSDRGNYSCFVSSPSITKSVFSKFIPLIPIPERTTKPYPADIVVQFKDIYTMMGQNVTLECFALGNPVPDIRWRKVLEPMPSTAEISTSGAVLKIFNIQLEDEGLYECEAENIRGKDKHQARIYVQAFPEWVEHINDTEVDIGSDLYWPCIATGKPIPTIRWLKNGYSYHKGELRLYDVTFENAGMYQCIAENAYGSIYANAELKILALAPTFEMNPMKKKILAAKGGRVIIECKPKAAPKPKFSWSKGTEWLVNSSRILIWEDGSLEINNITRNDGGIYTCFAENNRGKANSTGTLVITNPTRIILAPINADITVGENATMQCAASFDPALDLTFVWSFNGYVIDFNKEITHIHYQRNFMLDANGELLIRNAQLKHAGRYTCTAQTIVDNSSASADLVVRGPPGPPGGLRIEDIRATSVALTWSRGSDNHSPISKYTIQTKTILSDDWKDAKTDPPIIEGNMESAKAVDLIPWMEYEFRVVATNTLGTGEPSIPSNRIKTDGAAPNVAPSDVGGGGGTNRELTITWAPLSREYHYGNNFGYIVAFKPFDGEEWKKVTVTNPDTGRYVHKDETMTPSTAFQVKVKAFNNKGDGPYSLVAVINSAQDAPSEAPTEVGVKVLSSSEISVHWKHVLEKIVESYQIRYWAGHDKEAAAHRVQVTSQEYSARLENLLPDTQYFIEVGACNSAGCGPSSDVIETFTRKAPPSQPPRIISSVRSGSRYIITWDHVVALSNESTVTGYKILYRPDGQHDGKLFSTHKHSIEVPIPRDGEYVVEVRAHSDGGDGVVSQVKISGVSTLSSSLLSLLLPSLGFLVYSEF
[4]
  other: heterophilic cell co-clustering: increases

— article PMC9633819 (Nature Communications, 2022)
